Test results taken from patent US20100298213A1, “Pharmaceutically Active Insulin Receptor-Modulating Molecules” (Novo Nordisk A/S, priority 2004, published 2010).
Square brackets hold non-standard residues; d marks the D form. Ends that are not written are not given here. Dip = N[C@H](C(=O)O)C(c1ccccc1)c1ccccc1; Aib = CC(C)(N)C(=O)O

Legend:
human IR (HIR) = human IR (HIR) (Homo sapiens, UniProt P06213); assay: Human IR affinity (Kd); type: binding; settings: Kd value expressed relative to that of human insulin in the same assay
[1] = tested on: pepsin, elastase, chymotrypsin, trypsin, and carboxy-peptidase A; assay: Digestion with digestive enzymes (enzymatic stability); type: in vitro ADME
Text: A novel IRBP was derived from S597 by introducing the unusual amino acid residues aminoisobutyric acid and diphenylalanine into the Xaa7 position of the N-terminal Formula 6-like IRBAAS sequence of S597 (in place of Ala) and into the Xaa1 position of the C-terminal Formula 1 sequence (in place of Phe).

[2] = molecular target: RIR +11 (rat insulin receptor, B isoform) (Rattus norvegicus, UniProt P15127); assay: Binding of IM peptides to IR isoform RIR +11; settings: +11 (B) isoform
Chain of RIR +11 (rat insulin receptor, B isoform) (P15127 27-759 limits assumed): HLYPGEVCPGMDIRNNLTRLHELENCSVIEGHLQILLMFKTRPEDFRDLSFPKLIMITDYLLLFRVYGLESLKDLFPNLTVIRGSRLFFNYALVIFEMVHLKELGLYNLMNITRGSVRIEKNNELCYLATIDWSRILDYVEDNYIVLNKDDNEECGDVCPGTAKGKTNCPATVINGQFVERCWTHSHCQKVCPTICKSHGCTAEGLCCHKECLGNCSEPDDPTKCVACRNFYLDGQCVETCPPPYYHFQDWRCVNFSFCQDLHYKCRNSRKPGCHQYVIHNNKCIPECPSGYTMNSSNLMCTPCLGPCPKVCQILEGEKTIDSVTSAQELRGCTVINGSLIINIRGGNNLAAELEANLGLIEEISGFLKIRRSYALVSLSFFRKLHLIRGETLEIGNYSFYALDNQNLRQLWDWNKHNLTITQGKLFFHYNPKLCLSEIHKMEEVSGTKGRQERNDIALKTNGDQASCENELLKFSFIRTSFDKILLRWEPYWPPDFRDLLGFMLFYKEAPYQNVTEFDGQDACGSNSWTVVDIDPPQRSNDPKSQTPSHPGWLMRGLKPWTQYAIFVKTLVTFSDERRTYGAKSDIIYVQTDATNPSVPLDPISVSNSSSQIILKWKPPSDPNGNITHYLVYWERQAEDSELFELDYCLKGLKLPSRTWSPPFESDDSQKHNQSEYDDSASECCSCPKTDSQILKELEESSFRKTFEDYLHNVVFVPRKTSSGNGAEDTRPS
Chain of RIR +11 (rat insulin receptor, B isoform) (P15127 764-1383 partner limits assumed): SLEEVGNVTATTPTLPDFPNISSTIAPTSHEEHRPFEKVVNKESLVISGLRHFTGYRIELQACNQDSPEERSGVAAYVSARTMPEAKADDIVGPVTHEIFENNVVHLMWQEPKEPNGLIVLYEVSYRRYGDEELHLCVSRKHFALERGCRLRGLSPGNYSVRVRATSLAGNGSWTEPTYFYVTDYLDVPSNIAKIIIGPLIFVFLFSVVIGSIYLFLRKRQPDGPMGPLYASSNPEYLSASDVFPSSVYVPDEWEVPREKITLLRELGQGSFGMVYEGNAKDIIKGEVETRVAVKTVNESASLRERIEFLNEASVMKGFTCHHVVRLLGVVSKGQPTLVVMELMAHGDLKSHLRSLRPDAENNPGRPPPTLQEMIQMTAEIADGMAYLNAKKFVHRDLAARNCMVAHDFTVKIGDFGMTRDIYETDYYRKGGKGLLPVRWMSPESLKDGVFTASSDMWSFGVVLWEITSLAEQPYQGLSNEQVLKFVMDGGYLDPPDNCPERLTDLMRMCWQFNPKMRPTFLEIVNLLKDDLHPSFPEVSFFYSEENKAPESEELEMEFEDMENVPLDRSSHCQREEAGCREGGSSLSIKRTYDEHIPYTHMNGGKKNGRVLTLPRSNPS
Text: (§1) A number of IRBPs (S519; S557; S597; S636; S667; S733; S671; S660; S696; S574; S700; S626; and S726), some of which described in the prior patent documents, were applied to A and B isoforms (−11 and +11 isoforms) of the human, rat, and pig insulin receptors (HIR, RIR, and PIR) using standard methods.

[3] = molecular target: HIR +11 (human insulin receptor, B isoform) (Homo sapiens, UniProt P06213); assay: Binding of IM peptides to IR isoform HIR +11; settings: +11 (B) isoform
Text: as §1

[4] = molecular target: HIR −11 (human insulin receptor, A isoform) (Homo sapiens, UniProt P06213); assay: Binding of IM peptides to IR isoform HIR −11; settings: −11 (A) isoform
Text: as §1

[5] = molecular target: RIR −11 (rat insulin receptor, A isoform) (Rattus norvegicus, UniProt P15127); assay: Binding of IM peptides to IR isoform RIR −11; settings: −11 (A) isoform
Text: as §1

[6] = tested on: PIR −11 (pig insulin receptor, A isoform); assay: Binding of IM peptides to IR isoform PIR −11; settings: −11 (A) isoform
Text: as §1

[7] = tested on: PIR +11 (pig insulin receptor, B isoform); assay: Binding of IM peptides to IR isoform PIR +11; settings: +11 (B) isoform
Text: as §1

mouse adipocytes = assay: Glucose uptake in mouse adipocytes (FFC); type: cell-based; settings: for EC50 (FFC) rel. to HI: EC50 value expressed relative to that of human insulin in the same assay; for EC50: concentration needed for half maximal uptake of glucose in mouse adipocytes
wistar rats = assay: Blood glucose after administration to wistar rats; type: in vivo, rat
Method: IRBP S667 was and human insulin were administered to wistar rats (S667 at 1.25 nmol/kg; 2.5 nmol/kg; and 5 nmol/kg; human insulin (HI) at 1.25 nmol/kg) using standard techniques, such as are described in the prior patent documents. Glucose measurements were taken 20 minutes prior to administration, at administration, and 20; 40; 60; 80; 120; and 180 minutes after administration. These measurements are compared in FIG. 3.

[8] = molecular target: insulin receptor on mouse adipocytes (mouse, UniProt P15208 28-1372); assay: cell-based or functional assay
[9] = molecular target: human insulin receptor isoform with exon 11 (human) (UniProt P06213); assay: receptor binding, standard methods (FIG. 2)
[10] = molecular target: rat insulin receptor isoform with exon 11 (rat) (UniProt P15127); assay: receptor binding, standard methods (FIG. 2)
Chain of rat insulin receptor isoform with exon 11 (rat) (P15127 27-1383, stated change not applied): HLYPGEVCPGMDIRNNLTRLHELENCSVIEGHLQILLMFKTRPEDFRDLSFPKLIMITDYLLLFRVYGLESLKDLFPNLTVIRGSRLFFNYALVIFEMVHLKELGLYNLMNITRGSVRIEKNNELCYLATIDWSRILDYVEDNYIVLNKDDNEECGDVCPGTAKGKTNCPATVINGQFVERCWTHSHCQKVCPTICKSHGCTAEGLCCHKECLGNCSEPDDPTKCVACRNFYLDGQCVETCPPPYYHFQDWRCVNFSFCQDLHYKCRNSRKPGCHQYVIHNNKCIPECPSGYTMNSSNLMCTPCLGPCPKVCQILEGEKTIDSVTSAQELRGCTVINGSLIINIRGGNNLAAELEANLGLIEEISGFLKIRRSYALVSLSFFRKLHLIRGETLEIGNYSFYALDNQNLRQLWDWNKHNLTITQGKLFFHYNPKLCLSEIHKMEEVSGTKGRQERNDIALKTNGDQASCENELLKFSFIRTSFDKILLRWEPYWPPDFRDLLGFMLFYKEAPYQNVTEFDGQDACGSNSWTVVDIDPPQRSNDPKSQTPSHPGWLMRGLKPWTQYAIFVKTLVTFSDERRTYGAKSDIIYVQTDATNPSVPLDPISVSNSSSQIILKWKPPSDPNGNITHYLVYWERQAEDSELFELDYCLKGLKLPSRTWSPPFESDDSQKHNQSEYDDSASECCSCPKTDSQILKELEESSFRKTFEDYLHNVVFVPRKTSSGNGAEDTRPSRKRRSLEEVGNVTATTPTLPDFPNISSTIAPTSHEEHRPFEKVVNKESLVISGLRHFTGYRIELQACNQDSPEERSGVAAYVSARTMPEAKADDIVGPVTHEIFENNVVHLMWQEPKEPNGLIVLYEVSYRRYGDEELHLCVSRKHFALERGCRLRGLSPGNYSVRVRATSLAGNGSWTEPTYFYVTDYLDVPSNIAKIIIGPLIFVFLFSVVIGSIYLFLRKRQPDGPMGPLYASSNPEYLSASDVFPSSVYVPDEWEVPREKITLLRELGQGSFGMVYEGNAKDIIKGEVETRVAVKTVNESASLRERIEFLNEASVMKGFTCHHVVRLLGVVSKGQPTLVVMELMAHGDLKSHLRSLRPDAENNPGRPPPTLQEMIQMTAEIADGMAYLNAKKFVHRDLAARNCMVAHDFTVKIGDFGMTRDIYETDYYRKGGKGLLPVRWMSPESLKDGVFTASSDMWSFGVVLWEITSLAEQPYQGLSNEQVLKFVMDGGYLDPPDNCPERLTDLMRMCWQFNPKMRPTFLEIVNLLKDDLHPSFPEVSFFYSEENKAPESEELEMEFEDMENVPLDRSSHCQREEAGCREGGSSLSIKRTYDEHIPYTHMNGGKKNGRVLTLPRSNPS

[11] = molecular target: T1, human insulin receptor isoform without exon 11 (human, UniProt P06213-2 28-1370, limits assumed); assay: receptor binding, standard methods (FIG. 2)
T1 construct: also called HIR-11; HIR - 11
Text: as §1

[12] = molecular target: T2, rat insulin receptor isoform without exon 11 (rat, UniProt P15127-2 27-1371, limits assumed); assay: receptor binding, standard methods (FIG. 2)
T2 construct: also called RIR-11; RIR - 11
Text: as §1

[13] = molecular target: T3, pig insulin receptor isoform without exon 11 (pig, UniProt F1SCK8 28-746; F1SCK8 751-1370); assay: receptor binding, standard methods (FIG. 2)
T3 construct: also called PIR-11; PIR - 11
T3 sequence (alpha, as listed by the source limits assumed, stated change not applied, form in doubt, chain 1 of 2): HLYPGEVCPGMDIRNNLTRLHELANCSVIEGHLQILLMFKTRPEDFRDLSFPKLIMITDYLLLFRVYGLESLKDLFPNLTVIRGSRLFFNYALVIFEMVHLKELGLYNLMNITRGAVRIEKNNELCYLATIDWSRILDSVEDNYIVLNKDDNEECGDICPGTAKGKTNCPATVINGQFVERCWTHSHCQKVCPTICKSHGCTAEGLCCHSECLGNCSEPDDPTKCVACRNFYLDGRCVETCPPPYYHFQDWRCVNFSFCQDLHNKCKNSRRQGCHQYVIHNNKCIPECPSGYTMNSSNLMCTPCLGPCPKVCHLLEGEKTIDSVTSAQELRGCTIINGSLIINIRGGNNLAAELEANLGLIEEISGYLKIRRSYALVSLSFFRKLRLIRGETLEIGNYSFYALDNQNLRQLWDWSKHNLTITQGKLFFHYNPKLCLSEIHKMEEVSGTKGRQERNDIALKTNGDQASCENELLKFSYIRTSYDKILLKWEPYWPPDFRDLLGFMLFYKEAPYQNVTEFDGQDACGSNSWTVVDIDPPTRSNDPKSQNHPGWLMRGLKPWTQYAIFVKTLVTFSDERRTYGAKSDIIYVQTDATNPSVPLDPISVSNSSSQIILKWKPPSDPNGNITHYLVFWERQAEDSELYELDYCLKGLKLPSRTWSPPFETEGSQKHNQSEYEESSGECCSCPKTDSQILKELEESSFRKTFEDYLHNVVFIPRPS
T3 sequence (beta, as listed by the source limits assumed, stated change not applied, form in doubt, chain 2 of 2): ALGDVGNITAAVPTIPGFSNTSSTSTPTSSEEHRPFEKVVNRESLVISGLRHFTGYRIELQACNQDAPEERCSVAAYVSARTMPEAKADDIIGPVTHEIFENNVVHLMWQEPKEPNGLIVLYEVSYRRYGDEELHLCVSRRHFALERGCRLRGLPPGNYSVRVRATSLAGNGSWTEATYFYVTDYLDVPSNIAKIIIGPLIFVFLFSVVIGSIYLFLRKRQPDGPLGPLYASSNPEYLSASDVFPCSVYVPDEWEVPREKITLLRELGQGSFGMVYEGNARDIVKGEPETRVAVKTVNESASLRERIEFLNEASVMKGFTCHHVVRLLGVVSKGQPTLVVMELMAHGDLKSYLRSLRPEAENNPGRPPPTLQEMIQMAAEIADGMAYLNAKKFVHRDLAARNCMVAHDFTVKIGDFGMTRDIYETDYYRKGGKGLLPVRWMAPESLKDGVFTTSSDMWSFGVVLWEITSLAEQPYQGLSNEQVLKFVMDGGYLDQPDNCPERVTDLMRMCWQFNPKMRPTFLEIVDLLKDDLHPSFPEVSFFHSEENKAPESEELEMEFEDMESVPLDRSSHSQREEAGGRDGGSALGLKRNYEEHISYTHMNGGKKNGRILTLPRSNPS
Text: as §1

[14] = molecular target: T4, pig insulin receptor isoform with exon 11 (pig, UniProt F1SCL0 28-758; F1SCL0 763-1382); assay: receptor binding, standard methods (FIG. 2)
T4 construct: also called PIR+11; PIR + 11
T4 sequence (alpha, as listed by the source limits assumed, stated change not applied, form in doubt, chain 1 of 2): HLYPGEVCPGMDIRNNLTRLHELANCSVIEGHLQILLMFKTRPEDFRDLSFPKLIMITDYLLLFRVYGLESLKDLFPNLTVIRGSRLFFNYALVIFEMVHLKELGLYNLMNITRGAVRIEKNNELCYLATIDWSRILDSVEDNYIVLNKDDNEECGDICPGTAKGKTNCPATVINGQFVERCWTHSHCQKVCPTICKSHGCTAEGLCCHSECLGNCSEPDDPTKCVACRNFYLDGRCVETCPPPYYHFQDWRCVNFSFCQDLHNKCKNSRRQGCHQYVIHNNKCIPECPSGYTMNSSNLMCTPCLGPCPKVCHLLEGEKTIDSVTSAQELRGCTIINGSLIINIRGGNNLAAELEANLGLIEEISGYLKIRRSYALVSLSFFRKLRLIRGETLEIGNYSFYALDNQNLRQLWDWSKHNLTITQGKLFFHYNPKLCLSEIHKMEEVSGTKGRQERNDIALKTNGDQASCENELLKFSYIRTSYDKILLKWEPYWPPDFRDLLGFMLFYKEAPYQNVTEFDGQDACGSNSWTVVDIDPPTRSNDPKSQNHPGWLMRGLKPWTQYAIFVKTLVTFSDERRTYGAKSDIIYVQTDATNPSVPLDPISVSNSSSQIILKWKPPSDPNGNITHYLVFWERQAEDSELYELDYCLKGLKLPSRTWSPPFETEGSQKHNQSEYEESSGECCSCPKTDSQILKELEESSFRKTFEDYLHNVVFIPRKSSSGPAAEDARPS
T4 sequence (beta, as listed by the source limits assumed, stated change not applied, form in doubt, chain 2 of 2): as the sequence (beta, as listed by the source limits assumed, stated change not applied, form in doubt, chain 2 of 2) above
Text: as §1

relative affinity RIR +11 [2] | relative affinity HIR +11 [3] | EC50 (FFC) [8] [nM] | EC50 (FFC) rel. to HI [8] [%] | relative affinity [9] | relative affinity [10] | relative affinity [11] | relative affinity [12] | relative affinity [13] | relative affinity [14] | Molecule | other results
9 | – | – | – | – | – | – | – | – | – | MeO-PEG5000-SLEEEWAQIECEVYGRGCPSESFYDWFERQL ({MeO‑PEG5000}-SLEEEWAQIECEVYGRGCPSESFYDWFERQL; cysteine pairing not given here) [compound 660] | –
12 | 78 | – | – | – | – | – | – | – | – | SLEEEWAQIECEVYGRGCPSVRGFQGGTVWPGYEWLRNAAKK [compound 626] | –
13 | 53 | – | – | – | – | – | – | – | – | SLEEEWAQIQEEVWGRGEPSESFYDWFERQL [compound 700] | relative affinity HIR −11 [4]: 70; relative affinity RIR −11 [5]: 10; relative affinity PIR −11 [6]: 1.4; relative affinity PIR +11 [7]: 4.3
0.2 | 3.1 | – | – | – | – | – | – | – | – | SLEEEWAQVECEVYERGCPSESFYDWFERQL [compound 696] | –
7.7 | 121 | – | – | – | – | – | – | – | – | SLEEEWAQIECEVWGRGCPSEGFYNAIELLS [compound 726] | –
112 | 127 | – | – | – | – | – | – | – | – | SLEEEWAQIQCEVWGRGCPSESFYGWFERQL [compound 667] | dose dependence of glucose level modulation (wistar rats; 1.25, 2.5, 5 nmol/kg): dose-dependent IR-mediated glucose level modulation; blood glucose lowering compared with human insulin (wistar rats; S667 1.25, 2.5, 5 nmol/kg, HI 1.25 nmol/kg, up to 180 minutes): lower blood glucose to levels similar to human insulin at similar dosages
– | – | 2 | 3.3 | 58 | 9 | 52 | 6.5 | 5.5 | 12 | {MeO‑PEG5000}-SLEEEWAQIECEVYGRGCPSESFYDWFERQL (cysteine pairing not given here) [S660] | –
– | – | 0.21 | 31 | 127 | 112 | 111 | 44 | 47 | 84 | Ac-SLEEEWAQIQCEVWGRGCPSESFYGWFERQL (cysteine pairing not given here) [S667] | –
– | – | – | – | 8.2 | 2 | 8.3 | 0.9 | 0.2 | 0.4 | SLEEEWAQIEAEVWGRGAPSESFYDWFERQLG [S574] | –
– | – | 19 | 0.3 | 121 | 7.7 | 83 | 13 | 1.3 | 5.9 | Ac-SLEEEWAQIECEVWGRGCPSEGFYNAIELLS (cysteine pairing not given here) [S726] | –

Second part, the molecule before the results:

Molecule | relative affinity RIR +11 [2] | relative affinity HIR +11 [3] | EC50 (FFC) [8] [nM] | EC50 (FFC) rel. to HI [8] [%] | relative affinity [9] | relative affinity [10] | relative affinity [11] | relative affinity [12] | relative affinity [13] | relative affinity [14] | other results
Ac-SLEEEW-Aib-QIQCEVWGRPCPSEP-Dip-YGWFHEQLGPP (Ac-SLEEEW[Aib]QIQCEVWGRPCPSEP[Dip]YGWFHEQLGPP; cysteine pairing not given here) [compound 873] | – | – | – | – | – | – | – | – | – | – | Kd (HIR) rel. to HI (human IR (HIR)): 20%; stabilization towards all of the relevant enzymes as compared to S597 [1]: greater than 100 fold
SLEEEWAQIQCEVWGRGCPSESFYGWFERQLG [compound 733] | 211 | 290 | – | – | – | – | – | – | – | – | –
Ac-SLE-Aib-EW-Aib-QIQCEVWGRGCPSESFYDWFERQL [compound 663] | – | – | – | – | – | – | – | – | – | – | EC50 (FFC) rel. to HI (mouse adipocytes): 15%; EC50 (mouse adipocytes): 0.43 nM
SLEEEWAQIEAEVWGRGAPSESFYDWFERQLG [S574] | 2 | 8.2 | – | – | – | – | – | – | – | – | –
GSLDESFYDWFERQLG-(pox)2-SLEEEWAQIQCEVWGRGCPSY [compound 675] | – | – | – | – | – | – | – | – | – | – | EC50 (FFC) rel. to HI (mouse adipocytes): 25%; EC50 (mouse adipocytes): 0.26 nM
SLEEEWAQIQCEVWGRGCPSESFYDWFERQL [compound 636] | 79 | 117 | – | – | – | – | – | – | – | – | –
Ac-SLEEEWAQIQCEVWGRGCPSESFYDWFERQL (cysteine pairing not given here) [S636] | – | – | 0.056 | 98 | 117 | 79 | 106 | 50 | 32 | 68 | –
SLEEEWAQVECEVYERGCPSESFYDWFERQL [S696] | – | – | 870 | – | 3.1 | 0.2 | 3.3 | 0.3 | 0.3 | 0.8 | –
Ac-SLEEEWAQIQCEVWGRGCPSESFYGWFERQLG (cysteine pairing not given here) [S733] | – | – | 0.12 | 61 | 290 | 211 | 281 | 179 | 111 | 228 | –
SLEEEWAQIECEVYGRGCPSVRGFQGGTVWPGYEWLRNAAKK [S626] | – | – | 9.7 | 0.4 | 78 | 12 | 59 | 11 | 1 | 3 | –
